From patent publication US20060228349A1 come the findings set out here.

The target in assay [1] is Aβ-derived diffusible ligands (synthetic ADDLs), soluble oligomers of amyloid β1-42. Briefly: solution equilibrium titration, free IgG by ELISA, GraFit; SE 0.042.
For assay [2], the target named is ADDL fibril preparation (Aβ1-42 fibrils). Nature of the assay: solution equilibrium titration, free IgG by ELISA, GraFit; SE 0.12.
In assay [3] the target is Aβ1-20 peptide. Nature of the assay: solution equilibrium titration, free IgG by ELISA, GraFit; SE 3.53.
For assay [4], the target named is amyloid beta (1-40) peptide. Nature of the assay: solution equilibrium titration, free IgG by ELISA, GraFit; SE 0.62.

pKd: −log10 of the molar value.

Sequence of Aβ1-20 peptide (peptide, as listed by the source): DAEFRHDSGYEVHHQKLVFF

As for monoclonal antibody WO-2, the pKd in assay [1] is 9.24; in assay [2], 8.94; in assay [3], 7.72; in assay [4], 8.21.
